Reference: PMC4996945, “Crosstalk between MSH2–MSH3 and polβ promotes trinucleotide repeat expansion during base excision repair”

Target: MSH2;MSH3 (Homo sapiens;Homo sapiens, UniProt P43246;P20585 1-934;1-1137, |)
Assay: gel filtration; 1:1:1 OGG1, MSH2-MSH3, DNA; MSH2-MSH3-DNA peak; 10 mM HEPES pH 8.1, 110 mM NaCl, 1 mM DTT, 0.1 mg/ml BSA, 10% glycerol, 0.25% inositol, 5 mM Mg2+, 2 mM ATP, 2 mM ADP; on ice (EMSA 10 min, gel at 4 °C; footprint binding 15 min, DNase I at 37 °C); 25 nM DNA
Conditions: protein: recombinant;recombinant; tags: ;His; copies: 1;1

B1: CAG-duplex (80) with one 8-oxo-G (dsDNA)
DNA 1: CAAGCACGTTGACTACCGTCCAGCAGCAGCAGCAGCAGCAGCAGCAGCAGCAGCAGCAGTTTGAGGCAGAGTCCGAACAC
DNA 2: GTGTTCGGACTCTGCCTCAAACTGCTGCTGCTGCTGCTGCTGCTGCTGCTGCTGCTGCTGGACGGTAGTCAACGTGCTTG
modifications: one 8-oxo-G (stated position 17, exact G not marked in text); complement not given
Q: Does B1 bind?
A: binds
